Reference: article PMC9584410, “Structure of Klebsiella pneumoniae adenosine monophosphate nucleosidase” (PLoS ONE, 2022)

What was measured:
[1] = biological target: Klebsiella pneumoniae adenosine monophosphate nucleosidase (Klebsiella pneumoniae); assay: cryo-EM structure; purified KpAmn vitrified on a C-flat grid (Vitrobot, 4°C, >90% humidity), Titan Krios 300 kV; apo; D3 symmetry confirmed by ab initio models and enforced in refinement
[2] = substrate: Nc1ncnc2c1ncn2[C@@H]1O[C@H](COP(=O)(O)O)[C@@H](O)[C@H]1O; assay: purified protein; format: biochemical, Klebsiella pneumoniae; details: 25 °C, 20 mM HEPES pH 7.5, 100 mM NaCl, 1 mM MnCl2, no ATP activator listed

Molecule	stoichiometry N [1]	Km [2] [µM]
Klebsiella pneumoniae adenosine monophosphate nucleosidase (enzyme)	6	
KpAmn (K. pneumoniae adenosine monophosphate nucleosidase) (Klebsiella pneumoniae) (protein, expressed in E. coli BL21(DE3) R3 Rosetta; homohexamer, D3 symmetry; active site from two chains) MNIKAASLTPEQALAELEARYEASVTALRKAIGDYIDHNTLPDTEARAEGLFVYPQLSVSWDGADHKALKTRAWGRFTHAGCYTTTITNPKLFRNYLLEQLTLLYQDYGAHISVELSQHEIPYPYVIDGSTLTLDRSMSAGLTRYFPTTELSQIGDETADGLFHPTEFYPLSHFDARRVDFSLARLRHYTGTPAEHFQPYVLFTNYTRYVDEFVSWGCSQILDPDSPYIALSCAGGIWITAETEAPEQAISDLAWKKHQMPAWHLITHDGKGITLINIGVGPANAKTICDHLAVLRPDVWLMIGHCGGLRESQAIGDYVLAHAYLRDDHVLDAVLPPDIPIPSIAEVQRALYDATKQVSGMPGEEVKQRLRTGTVVTTDDRNWELRYSASALRFNLSRAVAIDMESATIAAQGYRFRVPYGTLLCVSDKPLHGEIKLPGQANRFYEGAISEHLQIGIRAIDLLRAEGDHMHSRKLRTFNEPPFR		390
